Target: methyltransferase domain of Mettl3 (MTD3, residues 357-580) (human, UniProt Q86U44 357-580)
Experiment: SEC-MALS

Sequence of methyltransferase domain of Mettl3 (MTD3, residues 357-580) (Q86U44 357-580): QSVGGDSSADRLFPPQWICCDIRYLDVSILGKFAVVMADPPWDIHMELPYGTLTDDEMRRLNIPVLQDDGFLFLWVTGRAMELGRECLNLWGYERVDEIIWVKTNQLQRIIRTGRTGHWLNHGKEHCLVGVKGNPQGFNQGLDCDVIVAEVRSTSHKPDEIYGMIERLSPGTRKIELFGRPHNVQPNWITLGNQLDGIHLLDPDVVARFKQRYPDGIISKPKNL

B1: methyltransferase domain of Mettl14 (MTD14, residues 111-456) (domain or fragment, human, UniProt Q9HCE5 111-456, looked up)
chain: QSLNPHNDYCQHFVDTGHRPQNFIRDVGLADRFEEYPKLRELIRLKDELIAKSNTPPMYLQADIEAFDIRELTPKFDVILLEPPLEEYYRETGITANEKCWTWDDIMKLEIDEIAAPRSFIFLWCGSGEGLDLGRVCLRKWGYRRCEDICWIKTNKNNPGKTKTLDPKAVFQRTKEHCLMGIKGTVKRSTDGDFIHANVDIDLIITEEPEIGNIEKPVEIFHIIEHFCLGRRRLHLFGRDSTIRPGWLTVGPTLTNSNYNAETYASYFSAPNSYLTGCTEEIERLRPKSPPPKSKSDRGGGAPRGGGRGGTSAGRGRERNRSNFRGERGGFRGGRGGAHRGGFPPR
With B1 as the binder, how does the “stoichiometry N” value read?
Its value is 1.

— publication PMC4958592 (Molecular cell, 2016)
